Measurements from patent publication US20030021774A1.

Tests used:
Assay in all cases: cell-based or functional assay
[1] = target: protease derived from Paecilomyces lilacinus CBS 102449 (Paecilomyces lilacinus CBS 102449)
[2] = target: T1, SAVINASE, subtilisin derived from Bacillus clausii (previously Bacillus lentus NCIB 10309) (Bacillus clausii (previously Bacillus lentus NCIB 10309)) (UniProt P29600)
T1 sequence (looked up): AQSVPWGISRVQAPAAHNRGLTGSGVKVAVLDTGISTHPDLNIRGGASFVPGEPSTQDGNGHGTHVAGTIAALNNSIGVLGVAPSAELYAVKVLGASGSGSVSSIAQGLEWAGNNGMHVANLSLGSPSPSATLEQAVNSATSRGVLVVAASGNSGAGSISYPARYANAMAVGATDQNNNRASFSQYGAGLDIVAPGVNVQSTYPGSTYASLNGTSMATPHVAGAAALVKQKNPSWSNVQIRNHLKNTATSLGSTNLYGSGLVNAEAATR

[3] = target: protease derived from Fusarium oxysporum IFO 4471 (Fusarium oxysporum IFO 4471)
[4] = target: T2, Sub.Novo, subtilisin from Bacillus amyloliquefaciens (Bacillus amyloliquefaciens) (UniProt P00782)
T2 sequence (looked up): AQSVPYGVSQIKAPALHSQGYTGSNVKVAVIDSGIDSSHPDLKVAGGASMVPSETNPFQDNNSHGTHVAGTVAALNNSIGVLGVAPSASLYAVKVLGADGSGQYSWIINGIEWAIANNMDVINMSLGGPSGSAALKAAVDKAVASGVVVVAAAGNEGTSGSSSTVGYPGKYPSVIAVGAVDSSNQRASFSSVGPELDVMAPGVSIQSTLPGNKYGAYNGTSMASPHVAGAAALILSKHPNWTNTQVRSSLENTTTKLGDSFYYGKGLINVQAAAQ

[5] = target: protease derived from Bacillus sp. NCIMB 40484 (Bacillus sp. NCIMB 40484)
[6] = target: protease derived from Aspergillus sp. CBS 102448
[7] = target: T3, Sub.Novo(Y217L), mutant of subtilisin from Bacillus amyloliquefaciens (Bacillus amyloliquefaciens) (UniProt P00782)
T3 sequence (looked up): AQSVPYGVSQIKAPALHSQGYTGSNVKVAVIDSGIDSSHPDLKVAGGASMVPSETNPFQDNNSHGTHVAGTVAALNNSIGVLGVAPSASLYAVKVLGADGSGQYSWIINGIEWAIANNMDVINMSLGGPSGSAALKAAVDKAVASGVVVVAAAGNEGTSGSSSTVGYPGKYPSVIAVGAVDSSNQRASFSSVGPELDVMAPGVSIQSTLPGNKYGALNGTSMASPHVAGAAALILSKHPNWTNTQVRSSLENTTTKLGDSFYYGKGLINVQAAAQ

[8] = target: protease derived from Acremonium chrysogenum ATCC 48272 (Acremonium chrysogenum ATCC 48272)
Sequence of protease derived from Acremonium chrysogenum ATCC 48272 (Acremonium chrysogenum ATCC 48272) (P29118 other isoform, or with tags, fused parts or gaps): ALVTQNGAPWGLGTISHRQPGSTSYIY

[9] = target: protease derived from Bacillus alcalophilus NCIMB 10438 (Bacillus alcalophilus NCIMB 10438)

Measured: Residual activity (%) on Suc-AAPF-pNA after incubation with SSI

B1: Streptomyces Subtilisin Inhibitor (SSI) (protein, UniProt P01006 32-144, looked up)
chain: DAPSALYAPSALVLTVGKGVSATTAAPERAVTLTCAPGPSGTHPAAGSACADLAAVGGDLNALTRGEDVMCPMVYDPVLLTVDGVWQGKRVSYERVFSNECEMNAHGSSVFAF
0%: [2] | [7] | [9]
4.3%: [5]
0.1%: all other assays above
